Experimental data as given in the RNAGym collection of RNA variant scans (doi:10.7554/elife.80360).

B1: HDV Ribozyme (parent)
chain: GGCCGGCAUGGUCCCAGCCUCCUCGCUGGCGCCGGCUGGGCAACAUUCCGAGGGGACCGUCCCCUCGGUAAUGGCGAAUGGGACCCA

Variants of: B1
Test: self-cleavage, relative activity (ratio to wild type); higher = more cleavage; co-transcriptional
Variant C32A G54A has a self-cleavage of 0.212.
In the case of C32A G54C, the self-cleavage is reported as 0.356.
C32G G67U gave a self-cleavage of 0.0831.
Work on C32G G67A yielded a self-cleavage of 0.16.
G31C A45C showed a self-cleavage of 0.104.
In the case of G31C A45G, the self-cleavage is reported as 0.293.
With C32A C75G the self-cleavage was 0.285.
With C32A C75U the self-cleavage was 0.0791.
Work on G31C G35A yielded a self-cleavage of 0.16.
For G31C A70C, the self-cleavage was 0.266.
Work on G31U C58U yielded a self-cleavage of 0.571.
In the case of G31U C58G, the self-cleavage is reported as 0.282.
With G31U G50A the self-cleavage was 0.674.
Variant C32A C58U has a self-cleavage of 0.208.
C32A C58A showed a self-cleavage of 0.208.
For C32A C58G, the self-cleavage was 0.
With C32G G38C the self-cleavage was 0.0462.
G31U C44A showed a self-cleavage of 0.0707.
G31U C44U showed a self-cleavage of 0.156.
G31C G54U gave a self-cleavage of 0.332.
C32G A71G gave a self-cleavage of 0.0415.
For C32G A71C, the self-cleavage was 0.
Work on C32A G67A yielded a self-cleavage of 0.211.
With C32A G67C the self-cleavage was 0.154.
Variant G31C C75A has a self-cleavage of 0.13.
With G31C C75U the self-cleavage was 0.111.
Work on C32A G34C yielded a self-cleavage of 0.208.
C32A G34A showed a self-cleavage of 0.032.
With C32A G34U the self-cleavage was 0.0791.
Variant G31C C64G has a self-cleavage of 0.292.
Variant G31C C64A has a self-cleavage of 0.148.
With G31C C64U the self-cleavage was 0.324.
In the case of G31U G80A, the self-cleavage is reported as 0.0519.
In the case of G31U G80U, the self-cleavage is reported as 0.0675.
With G31C C58G the self-cleavage was 0.289.
G31C C58A showed a self-cleavage of 0.325.
G31C C58U showed a self-cleavage of 0.339.
For C32A G38C, the self-cleavage was 0.0817.
With C32A G38A the self-cleavage was 0.0665.
For G31U C33A, the self-cleavage was 0.0231.
In the case of G31U C33G, the self-cleavage is reported as 0.0639.
G31U C33U gave a self-cleavage of 0.125.
For G31C G38C, the self-cleavage was 0.135.
Variant G31C G38A has a self-cleavage of 0.0692.
Work on C32G A83G yielded a self-cleavage of 0.
With C32G A83C the self-cleavage was 0.0346.
With C32G C44A the self-cleavage was 0.0791.
C32G C44U showed a self-cleavage of 0.0665.
For C32G C36U, the self-cleavage was 0.111.
C32A G73C gave a self-cleavage of 0.0906.
Variant C32A G73U has a self-cleavage of 0.0959.
For C32A G73A, the self-cleavage was 0.138.
Variant C32G A78C has a self-cleavage of 0.0665.
For C32G A78G, the self-cleavage was 0.0536.
In the case of C32G A78U, the self-cleavage is reported as 0.0811.
Variant C32A C41A has a self-cleavage of 0.089.
In the case of C32A C41G, the self-cleavage is reported as 0.
Work on C32A G39C yielded a self-cleavage of 0.166.
Variant C32A G39U has a self-cleavage of 0.237.
C32A C84G gave a self-cleavage of 0.111.
G31C G34A showed a self-cleavage of 0.0963.
In the case of C32A G40U, the self-cleavage is reported as 0.22.
C32A G40C gave a self-cleavage of 0.134.
With G31C G80U the self-cleavage was 0.0811.
In the case of G31C G80A, the self-cleavage is reported as 0.128.
Variant G31C A51U has a self-cleavage of 0.212.
For C32G C58A, the self-cleavage was 0.189.
With C32A U69G the self-cleavage was 0.271.
Variant C32A U69A has a self-cleavage of 0.0652.
Work on C32G A42C yielded a self-cleavage of 0.0678.
In the case of C32A G76C, the self-cleavage is reported as 0.192.
For C32A G76A, the self-cleavage was 0.214.
Work on C32A G76U yielded a self-cleavage of 0.302.
Work on G31C U37C yielded a self-cleavage of 0.0707.
Variant G31U G39U has a self-cleavage of 0.285.
In the case of G31U G59A, the self-cleavage is reported as 0.546.
Work on G31U G59U yielded a self-cleavage of 0.617.
For C32G A70G, the self-cleavage was 0.0554.
With C32G A70U the self-cleavage was 0.032.
G31C G39A gave a self-cleavage of 0.0554.
For G31C C57A, the self-cleavage was 0.282.
For G31C C57G, the self-cleavage was 0.291.
C32A U37A gave a self-cleavage of 0.0627.
With C32A U37G the self-cleavage was 0.166.
In the case of G31U C62G, the self-cleavage is reported as 0.19.
Work on G31U C62U yielded a self-cleavage of 0.404.
With G31U U60C the self-cleavage was 0.639.
With G31U U60A the self-cleavage was 0.379.
G31U U60G gave a self-cleavage of 0.212.
Work on G31U G68C yielded a self-cleavage of 0.344.
Work on G31U G68U yielded a self-cleavage of 0.427.
In the case of G31U G68A, the self-cleavage is reported as 0.38.
C32A C33G showed a self-cleavage of 0.0405.
Work on C32A C33A yielded a self-cleavage of 0.129.
G31C C33A showed a self-cleavage of 0.0875.
In the case of G31C C33G, the self-cleavage is reported as 0.0852.
C32A A42U showed a self-cleavage of 0.166.
With G31U C84A the self-cleavage was 0.146.
Work on G31U C84G yielded a self-cleavage of 0.138.
Work on G31U C84U yielded a self-cleavage of 0.363.
Variant G31U U79G has a self-cleavage of 0.147.
G31U U79A gave a self-cleavage of 0.148.
For G31U C36A, the self-cleavage was 0.106.
G31U C36G showed a self-cleavage of 0.0906.
Work on G31U G35U yielded a self-cleavage of 0.0443.
With C32A G55U the self-cleavage was 0.219.
C32A G55A showed a self-cleavage of 0.145.
With C32A G55C the self-cleavage was 0.133.
With G31U G54C the self-cleavage was 0.197.
Work on G31U G54U yielded a self-cleavage of 0.369.
With G31U G54A the self-cleavage was 0.403.
In the case of G31C C66A, the self-cleavage is reported as 0.405.
Work on G31C G53U yielded a self-cleavage of 0.496.
With G31C G53A the self-cleavage was 0.572.
Variant C32G G35A has a self-cleavage of 0.154.
For G31C C61A, the self-cleavage was 0.332.
In the case of C32G A56C, the self-cleavage is reported as 0.0739.
C32G A56G showed a self-cleavage of 0.0852.
Variant G31U C64G has a self-cleavage of 0.514.
G31U C64U showed a self-cleavage of 0.475.
With G31A U65C the self-cleavage was 0.462.
With G31A U65G the self-cleavage was 0.34.
For G31A U65A, the self-cleavage was 0.366.
G31U C85U gave a self-cleavage of 0.441.
Variant G31U C85A has a self-cleavage of 0.288.
In the case of C32A C63A, the self-cleavage is reported as 0.232.
C32A C63G gave a self-cleavage of 0.095.
With C32G G76U the self-cleavage was 0.122.
Work on C32G G76C yielded a self-cleavage of 0.224.
G31C A87G gave a self-cleavage of 0.226.
In the case of G31C A87C, the self-cleavage is reported as 0.531.
In the case of G31C G52C, the self-cleavage is reported as 0.277.
Variant C32A A56G has a self-cleavage of 0.252.
C32A A56C showed a self-cleavage of 0.293.
G31U C86G showed a self-cleavage of 0.451.
G31U C86A gave a self-cleavage of 0.394.
C32A G68A gave a self-cleavage of 0.185.
For G31C A77C, the self-cleavage was 0.225.
C32A A51C showed a self-cleavage of 0.244.
With C32A A51G the self-cleavage was 0.162.
C32G A45C showed a self-cleavage of 0.0707.
Work on C32A U65A yielded a self-cleavage of 0.309.
Work on C32A U65C yielded a self-cleavage of 0.
In the case of C32G C49A, the self-cleavage is reported as 0.
C32A A43G showed a self-cleavage of 0.119.
C32A A43U gave a self-cleavage of 0.108.
For C32A A43C, the self-cleavage was 0.162.
With C32G C64U the self-cleavage was 0.109.
G31A U69C showed a self-cleavage of 0.525.
In the case of G31U C63A, the self-cleavage is reported as 0.468.
With G31U C63U the self-cleavage was 0.41.
Variant G31U C63G has a self-cleavage of 0.483.
With G31U C49A the self-cleavage was 0.451.
In the case of G31U A45U, the self-cleavage is reported as 0.175.
In the case of C32A A70C, the self-cleavage is reported as 0.101.
G31U A77G gave a self-cleavage of 0.231.
G31U A77U showed a self-cleavage of 0.0665.
With G31C G74C the self-cleavage was 0.106.
In the case of G31C G74U, the self-cleavage is reported as 0.143.
With C32A C66G the self-cleavage was 0.213.
For C32A C66A, the self-cleavage was 0.181.
Variant G31U G53A has a self-cleavage of 0.289.
Variant G31U G53U has a self-cleavage of 0.322.
With G31C A83G the self-cleavage was 0.219.
Variant G31C A83U has a self-cleavage of 0.173.
For C32G G55U, the self-cleavage was 0.0911.
Work on C32G G55C yielded a self-cleavage of 0.136.
